Target: T1, ankyrin-repeat-, SH3-domain- and proline-rich-region-containing protein 2 (ASPP2), FLAG-tagged (UniProt Q8CG79 1-1128)
T1 construct: ASPP2, FLAG-tagged, co-expressed with HA-MAGI-3 in a heterologous expression system; HEK293 is probably the host; also called FLAG-ASPP2; source: heterologous expression system, in lysate
T1 sequence (looked up): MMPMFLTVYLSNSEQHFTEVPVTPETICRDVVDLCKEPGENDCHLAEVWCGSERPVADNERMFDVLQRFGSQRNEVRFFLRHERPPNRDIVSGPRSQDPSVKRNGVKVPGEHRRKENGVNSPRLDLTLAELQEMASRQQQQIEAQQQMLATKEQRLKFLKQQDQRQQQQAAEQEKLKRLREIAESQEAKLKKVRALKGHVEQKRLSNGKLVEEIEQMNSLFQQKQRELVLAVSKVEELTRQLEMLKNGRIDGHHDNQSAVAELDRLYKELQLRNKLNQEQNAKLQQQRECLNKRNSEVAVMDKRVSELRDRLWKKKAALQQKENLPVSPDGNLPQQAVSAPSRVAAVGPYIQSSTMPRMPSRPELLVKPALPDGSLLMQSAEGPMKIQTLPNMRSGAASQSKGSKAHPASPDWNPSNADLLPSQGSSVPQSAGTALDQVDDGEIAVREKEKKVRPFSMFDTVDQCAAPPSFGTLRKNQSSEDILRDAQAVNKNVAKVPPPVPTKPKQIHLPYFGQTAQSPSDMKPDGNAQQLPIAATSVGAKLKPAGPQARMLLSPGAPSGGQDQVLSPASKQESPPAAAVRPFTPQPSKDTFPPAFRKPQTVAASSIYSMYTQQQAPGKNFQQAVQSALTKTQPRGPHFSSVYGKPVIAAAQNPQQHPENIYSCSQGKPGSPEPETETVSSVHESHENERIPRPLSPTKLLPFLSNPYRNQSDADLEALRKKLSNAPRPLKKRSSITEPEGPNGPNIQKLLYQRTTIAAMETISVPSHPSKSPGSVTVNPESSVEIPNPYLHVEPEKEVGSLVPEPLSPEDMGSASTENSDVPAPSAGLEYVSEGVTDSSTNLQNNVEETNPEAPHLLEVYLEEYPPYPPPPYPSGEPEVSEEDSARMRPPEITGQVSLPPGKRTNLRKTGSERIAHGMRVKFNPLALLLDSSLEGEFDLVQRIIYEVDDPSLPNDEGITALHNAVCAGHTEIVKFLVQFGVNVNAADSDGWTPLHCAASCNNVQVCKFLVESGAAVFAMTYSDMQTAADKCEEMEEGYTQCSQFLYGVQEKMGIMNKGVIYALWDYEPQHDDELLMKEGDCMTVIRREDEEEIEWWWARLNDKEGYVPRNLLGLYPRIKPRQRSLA
Experiment: co-IP; FLAG immunoprecipitation in a heterologous expression system; FLAG-ASPP2 and HA-MAGI-3 co-expressed with GFP-RASSF10; 20 mM Tris-HCl pH 7.5, 150 mM NaCl, 1% Triton X-100; blot quantified, normalised to GFP control
Details: partners not purified

B1: MAGI-3 (natural protein, UniProt Q9EQJ9 1-1476, looked up)
chain: MSKTLKKKKHWLSKVQECAVSWAGPPGDLGAEIRGGAERGEFPYLGRLRDEAGGGGGTCCVVSGKAPSPGDVLLEVNGTPVSGLTNRDTLAVIRHFREPIRLKTVKPGKVINKDLRHYLSLQFQKGSIDHKLQQVIRDNLYLRTIPCTTRAPRDGEVPGVDYNFISVEQFKALEESGALLESGTYDGNFYGTPKPPAEPSPFQPDPVDQVLFDNEFDTESQRKRTTSVSKMERMDSSLPEEEEDEDKEAVNGSGSMETREMHSETSDCWMKTVPSYNQTNSSMDFRNYMMRDENLEPLPKNWEMAYTDTGMIYFIDHNTKTTTWLDPRLCKKAKAPEDCEDGELPYGWEKIEDPQYGTYYVDHLNQKTQFENPVEEAKRKKQLGQAEIHSAKTDVERAHFTRDPSQLKGVLVRASLKKSTMGFGFTIIGGDRPDEFLQVKNVLKDGPAAQDGKIAPGDVIVDINGNCVLGHTHADVVQMFQLVPVNQYVNLTLCRGYPLPDDSEDPVVDIVAATPVINGQSLTKGETCMNTQDFKLGAMVLDQNGKSGQILASDRLNGPSESSEQRASLASSGSSQPELVTIPLIKGPKGFGFAIADSPTGQKVKMILDSQWCQGLQKGDIIKEIYHQNVQNLTHLQVVEVLKQFPVGADVPLLILRGGPCSPTKTAKTKTDTKENSGSLETINEPIPQPMPFPPSIIRSGSPKLDPSEVYLKSKTLYEDKPPNTKDLDVFLRKQESGFGFRVLGGDGPDQSIYIGAIIPLGAAEKDGRLRAADELMCIDGIPVKGKSHKQVLDLMTTAARNGHVLLTVRRKIFYGEKQPEDESHQAFSQNGSPRLNRAELPTRSAPQEAYDVTLQRKENEGFGFVILTSKSKPPPGVIPHKIGRVIDGSPADRCGGLKVGDHISAVNGQSIVDLSHDNIVQLIKDAGVTVTLTVVAEEEHHGPPSGTNSARQSPALQHRPMGQAQANHIPGDRIALEGEIGRDVCSSYRHSWSDHKHLAQPDTAVISVVGSRHNQSLGCYPVELERGPRGFGFSLRGGKEYNMGLFILRLAEDGPAIKDGRIHVGDQIVEINGEPTQGITHTRAIELIQAGGNKVLLLLRPGTGLIPDHGDWDTNSPSSSNVIYDEQPPPLPSSHSASTFEESHVPATEDSLTRVQICEKAEELKDTVQEKKSTLNGSQPEMKYQSVHKTMSKKDPPRGSGHGEKSRLKGENGVTRRGRSASPKKSVNRHSEEHLEKIPRPLKSDPKEKSRDRSLSPRKGESKGRLTIKAGSGQDPYRKDRGRSSSPKKQQKIGGNSLSNTEGKLSEAGSRRAAGHPRDSTEQLPDGREKSGVSRKDLKQSQPGKTRTKSPEKKSSKVDETSLPSKKTSSTAGRVVSEKEKGKKPTAGETSRETVEHTQISAKQLKQEAQEKTALGNADDHKGRESEVTDRCRERAGCTPQSSSLVKKAPITPGPWRVPRANKVTGTTGMADKQL
notes: MAGI-3, expressed in a heterologous expression system for FLAG immunoprecipitation; HEK293 is probably the host; also called HA-MAGI-3; MAGI proteins; source: heterologous expression system, in lysate
fold co-precipitation with GFP-RASSF10 co-expressed, over GFP alone: ~4 fold

Reference: paper PMC7954791, “MAGIs regulate aPKC to enable balanced distribution of intercellular tension for epithelial sheet homeostasis” (Communications Biology, 2021)
